In article PMC11698047, “The dual Ras-association domains of Drosophila Canoe have differential roles in linking cell junctions to the cytoskeleton during morphogenesis” (Journal of Cell Science, 2024):
Several values for one entry are separate records, joined by “and”; a condition that tells them apart may be missing. Equal entries are not always repeated.

B1: Drosophila melanogaster Canoe RA1 domain (amino acids 1-137, including the αN helix) (domain or fragment, UniProt Q24279 1-137, looked up)
chain: MSHDKKMLDREAVRSVIQQWNANRLDLFALSEPDENLLFHGVMRFYFQDAGQKVATKCIRVASDATVTDVIDTLIEKFRPDMRMLSVPNYALYEVHANGEERRLNADEKPLLVQLNWHIDDREGRFLLKNIDQKTTP
notes: Canoe (Cno), Drosophila melanogaster, RA1 domain with its N-terminal αN helix, amino acids 1-137; The methods say that some RA1 preparations were purified without thrombin treatment; also called Cno RA1; source: E. coli BL21 DE3 pLysS, purified (Ni-NTA, thrombin cleavage, benzamidine sepharose, second Ni-NTA); not shown: His6, N-terminal, cleaved
B2: Drosophila melanogaster Canoe RA2 domain (amino acids 222-350, including the αN helix), with His-tag (domain or fragment, UniProt Q24279 222-350, looked up)
chain: TRSISNPEAVMRRRRQQKLEKKLQQFRSRDGGPDTGGTLKIYGESLCQDVPYKTLLLSIRDCAQAVVREMLTKYGLEKADPLHYCLVQVNSDGTEYILDDDECPLSILMNHPTSRGSIMFHVRRRPADS
notes: Canoe (Cno), Drosophila melanogaster, RA2 domain with its N-terminal αN helix, amino acids 222-350; Cloned NdeI/EcoRI in pET28; also called Cno RA2; RA2 with His-tag; source: E. coli BL21 DE3 pLysS, purified (Ni-NTA, without thrombin treatment); not shown: His6, N-terminal, kept
B3: Drosophila melanogaster GTPase Rap1G12V (amino acids 1-180), GMPPNP-loaded (enzyme, UniProt P08645 1-180, looked up)
chain: MREYKIVVLGSVGVGKSALTVQFVQCIFVEKYDPTIEDSYRKQVEVDGQQCMLEILDTAGTEQFTAMRDLYMKNGQGFVLVYSITAQSTFNDLQDLREQILRVKDTDDVPMVLVGNKCDLEEERVVGKELGKNLATQFNCAFMETSAKAKVNVNDIFYDLVRQINKKSPEKKQKKPKKSL
notes: Rap1 GTPase, Drosophila melanogaster, amino acids 1-180, constitutively active G12V mutant; Loaded with the non-hydrolysable nucleotide GMPPNP and Mg2+ (formula mass 21.0 kDa); Cloned NdeI/EcoRI in pET28; a few vector residues probably remain at the N-terminus after thrombin cleavage (surmised); also called Rap1-GMPPNP; Rap1G12V-GMPPNP; source: E. coli BL21 DE3 pLysS, purified (Ni-NTA, thrombin …)

Key:
Details in all cases: both partners purified
[1] = biological target: B3; test: ITC; GMPPNP-loaded Rap1G12V (150-670 µM for RA1; 650-1200 µM for RA2) injected into the cell with RA1 (20-50 µM) or RA2 (42-80 µM); 25°C, buffer C (25 mM HEPES-NaOH pH 7.5, 100 mM NaCl, 5 mM MgCl2, 0.1% β-ME); one-site binding model
[2] = biological target: B1; test: as above
[3] = biological target: B2; test: as above
[4] = biological target: B1; test: SEC-MALS; 100 µl of individual proteins (200 µM) or RA domain-Rap1G12V-GMPPNP complexes (200 µM complex) on Superdex 200, 0.5 ml/min, buffer C (25 mM HEPES-NaOH pH 7.5, 100 mM NaCl, 5 mM MgCl2, 0.1% β-ME) with 0.2 g/l sodium azide; in duplicate

Binder | Kd [1] | dH [2] | stoichiometry N [2] | dH [3] | stoichiometry N [3] | stoichiometry N [4]
B1 | 4.5 µM and 5.9 µM |  |  |  |  | 
B2 | 8.8 µM and 7.9 µM and 8.7 µM |  |  |  |  | 
B3 |  | -4.38 kcal/mol and -4.79 kcal/mol | 0.717 | -3.07 kcal/mol and -2.18 kcal/mol and -2.72 kcal/mol | 0.755 and 0.73 and 0.63 | 1
